Source: article PMC9599597

Target: F5_SusD-like protein (uncultured human gut Bacteroides strain)
Assay: SEC; Superdex 200 16/600 column; 20 mM Tris-HCl, 150 mM NaCl, pH 7.5

## F5_SusD-like protein (natural protein)
  stoichiometry N: 2
